Substrate in data set [1]: O=C(Cc1cccs1)N[C@@H]1C(=O)N2C(C(=O)[O-])=C(C[n+]3ccccc3)CS[C@H]12
Kind of data set: Ratio of Kcat to Km for Bacillus anthracis beta-lactamase Bla1.

Substrate in data set [2]: CO/N=C(\C(=O)N[C@@H]1C(=O)N2C(C(=O)[O-])=C(C[N+]3(C)CCCC3)CS[C@H]12)c1csc(N)n1
Kind of data set: (§1) Activity of Bacillus anthracis beta-lactamase Bla1.

Substrate in data set [3]: CO/N=C(\C(=O)N[C@@H]1C(=O)N2C(C(=O)O)=C(COC(C)=O)CS[C@H]12)c1csc(N)n1
The data set is described as §1.

Substrate in data set [4]: CC(C)(O/N=C(\C(=O)N[C@@H]1C(=O)N2C(C(=O)[O-])=C(C[n+]3ccccc3)CS[C@H]12)c1csc(N)n1)C(=O)O
The description is as §1.

Substrate in data set [5]: CO/N=C(\C(=O)N[C@@H]1C(=O)N2C(C(=O)[O-])=C(C[N+]3(C)CCCC3)CS[C@H]12)c1csc(N)n1
The conditions noted are these: Shouchella clausii; NR.

Substrate in data set [6]: CO/N=C(\C(=O)N[C@@H]1C(=O)N2C(C(=O)[O-])=C(C[n+]3cccc4c3CCC4)CS[C@H]12)c1csc(N)n1
The conditions noted are these: Shouchella clausii; NR.

Substrate in data set [7]: CC(=O)OCC1=C(C(=O)O)N2C(=O)[C@@H](NC(=O)Cc3cccs3)[C@H]2SC1
The following applies: Shouchella clausii; NR.

Substrate in data set [8]: CO/N=C(\C(=O)N[C@@H]1C(=O)N2C(C(=O)O)=C(COC(N)=O)CS[C@H]12)c1ccco1
The following applies: Shouchella clausii; NR.

Substrate in data set [9]: C[C@H]1[C@H](NC(=O)/C(=N\OC(C)(C)C(=O)O)c2csc(N)n2)C(=O)N1S(=O)(=O)O
The following applies: Shouchella clausii; NR.

Substrate in data set [10]: CO/N=C(\C(=O)N[C@@H]1C(=O)N2C(C(=O)O)=C(COC(C)=O)CS[C@H]12)c1csc(N)n1
The conditions noted are these: Shouchella clausii; NR.

Substrate in data set [11]: CO[C@@]1(NC(=O)Cc2cccs2)C(=O)N2C(C(=O)O)=C(COC(N)=O)CS[C@@H]21
The following applies: Shouchella clausii; NR.

Substrate in data set [12]: CO[C@@]1(NC(=O)C(C(=O)O)c2ccc(O)cc2)C(=O)N2C(C(=O)O)=C(CSc3nnnn3C)CO[C@@H]21
The following applies: Shouchella clausii; NR.

Substrate in data set [13]: CCN1CCN(C(=O)N[C@@H](C(=O)N[C@@H]2C(=O)N3[C@@H]2SC(C)(C)[C@@H]3C(=O)O)c2ccccc2)C(=O)C1=O
The following applies: Shouchella clausii; NR.

Substrate in data set [14]: CC1(C)S[C@@H]2[C@H](NC(=O)Cc3ccccc3)C(=O)N2[C@H]1C(=O)O
The following applies: Shouchella clausii; NR.

Substrate in data set [15]: CO/N=C(\C(=O)N[C@@H]1C(=O)N2C(C(=O)O)=C(CSc3nc(=O)c(O)nn3C)CS[C@H]12)c1csc(N)n1
The conditions noted are these: Shouchella clausii; NR.

Substrate in data set [16]: CC1(C)S[C@@H]2[C@H](NC(=O)[C@H](C(=O)O)c3ccsc3)C(=O)N2[C@H]1C(=O)O
The conditions noted are these: Shouchella clausii; NR.

Substrate in data set [17]: CC1(C)S[C@@H]2[C@H](NC(=O)[C@H](N)c3ccc(O)cc3)C(=O)N2[C@H]1C(=O)O
The following applies: Shouchella clausii; NR.

Substrate in data set [18]: CC(C)(O/N=C(\C(=O)N[C@@H]1C(=O)N2C(C(=O)[O-])=C(C[n+]3ccccc3)CS[C@H]12)c1csc(N)n1)C(=O)O
The conditions noted are these: Shouchella clausii; NR.

Substrate in data set [19]: O=C(Cc1cccs1)N[C@@H]1C(=O)N2C(C(=O)[O-])=C(C[n+]3ccccc3)CS[C@H]12
The conditions noted are these: Shouchella clausii; NR.

Substrate in data set [20]: CO/N=C(\C(=O)N[C@@H]1C(=O)N2C(C(=O)[O-])=C(C[N+]3(C)CCCC3)CS[C@H]12)c1csc(N)n1
The conditions noted are these: Shouchella clausii; NR. The source holds these as a separate data set.

Substrate in data set [21]: CO/N=C(\C(=O)N[C@@H]1C(=O)N2C(C(=O)[O-])=C(C[n+]3cccc4c3CCC4)CS[C@H]12)c1csc(N)n1
The conditions noted are these: Shouchella clausii; NR. The source holds these as a separate data set.

Substrate in data set [22]: CC(=O)OCC1=C(C(=O)O)N2C(=O)[C@@H](NC(=O)Cc3cccs3)[C@H]2SC1
The following applies: Shouchella clausii; NR. This is another data set of the same source.

Substrate in data set [23]: CO/N=C(\C(=O)N[C@@H]1C(=O)N2C(C(=O)O)=C(COC(N)=O)CS[C@H]12)c1ccco1
The conditions noted are these: Shouchella clausii; NR. This is another data set of the same source.

Substrate in data set [24]: CO/N=C(\C(=O)N[C@@H]1C(=O)N2C(C(=O)O)=C(COC(C)=O)CS[C@H]12)c1csc(N)n1
The conditions noted are these: Shouchella clausii; NR. The source holds these as a separate data set.

Substrate in data set [25]: CCN1CCN(C(=O)N[C@@H](C(=O)N[C@@H]2C(=O)N3[C@@H]2SC(C)(C)[C@@H]3C(=O)O)c2ccccc2)C(=O)C1=O
The following applies: Shouchella clausii; NR. This is another data set of the same source.

Substrate in data set [26]: CC1(C)S[C@@H]2[C@H](NC(=O)Cc3ccccc3)C(=O)N2[C@H]1C(=O)O
The conditions noted are these: Shouchella clausii; NR. The source holds these as a separate data set.

Substrate in data set [27]: CO/N=C(\C(=O)N[C@@H]1C(=O)N2C(C(=O)O)=C(CSc3nc(=O)c(O)nn3C)CS[C@H]12)c1csc(N)n1
The conditions noted are these: Shouchella clausii; NR. This is another data set of the same source.

Substrate in data set [28]: CC1(C)S[C@@H]2[C@H](NC(=O)[C@H](C(=O)O)c3ccsc3)C(=O)N2[C@H]1C(=O)O
The following applies: Shouchella clausii; NR. This is another data set of the same source.

Substrate in data set [29]: CC1(C)S[C@@H]2[C@H](NC(=O)[C@H](N)c3ccc(O)cc3)C(=O)N2[C@H]1C(=O)O
The following applies: Shouchella clausii; NR. This is another data set of the same source.

Substrate in data set [30]: CC(C)(O/N=C(\C(=O)N[C@@H]1C(=O)N2C(C(=O)[O-])=C(C[n+]3ccccc3)CS[C@H]12)c1csc(N)n1)C(=O)O
The conditions noted are these: Shouchella clausii; NR. The source holds these as a separate data set.

Substrate in data set [31]: O=C(Cc1cccs1)N[C@@H]1C(=O)N2C(C(=O)[O-])=C(C[n+]3ccccc3)CS[C@H]12
The following applies: Shouchella clausii; NR. This is another data set of the same source.

Substrate in data set [32]: CC(=O)OCC1=C(C(=O)O)N2C(=O)[C@@H](NC(=O)CCC[C@@H](N)C(=O)O)[C@H]2SC1
Put plainly: (§2) Activity of Bacillus cereus beta-lactamase BcI.

Substrate in data set [33]: CC1(C)S[C@@H]2[C@H](NC(=O)Cc3ccccc3)C(=O)N2[C@H]1C(=O)O
The data set is described as §2.

Where only a bound is given, the exact number is not on record here.

B1: Beta-lactamase (Bacillus anthracis), Q93T42 (protein)
chain: MIVLKNKKMLKIGMCVGILGLSITSLVTFTGGALQVEAKEKTGQVKHKNQATHKEFSQLEKKFDARLGVYAIDTGTNQTIAYRPNERFAFASTYKALAAGVLLQQNSTKKLDEVITYTKEDLVDYSPVTEKHVDTGMTLGEIAEAAVRYSDNTAGNILFHKIGGPKGYEKALRQMGDRVTMSDRFETELNEAIPGDIRDTSTAKAIATNLKAFTAGNALPNHKRNILTKWMKGNATGDKLIRAGVPTNWVVADKSGAGSYGTRNDIAIVWPPNRAPIIIAILSSKDEKGATYDNQLIAEAAEVIVNAFR
For the protein B1, the kcat/Km in data set [1] amounted to 1.1e+06 M⁻¹ s⁻¹. In addition, the kcat in data set [2], in data set [3] and in [4] was less than 0.2 s⁻¹ throughout.

B2: Beta-lactamase (Bacillus clausii), A8RR46 (protein)
chain: MKRSFFMLKTKITSSILVGACLLIGCSNGNEQPVSNEPEPEESVETGEAVFKALEEEYAARLGVFALDTGTGQTVSYRSDERFTYASAHKPLAVAVLLQQKSIEELEQLITYSADDLVNYNPITENHVETGMTLRELSDASIRYSDNTAANFIFDEIGGPEGFKEGLRAIGDTVTEPERIEPELNHVEPGEIQDTSTPEALAKSLQEFALGEALPADKQELLIDWLIGNTTGDALIRAGVPEGWEVGDKTGAGSYGTRNDIAILWPPEKEPIILAVLSSKDEKDAEYDDELIAKATEEVINLLAQTE
B2: the Km in [5] was greater than 1000 µM; in [6], 136 µM; in data set [7] it was 15 µM; in data set [8] it was 105 µM; in [10], 790 µM; in [11] it was less than 0.01 µM. The Michaelis constant (Km) amounted to 21 µM in [13]; 12 µM in data set [14]; 950 µM in data set [15]; 6 µM in [16]; 22 µM in data set [17]; 1000 µM in [18]. For the same protein, the Michaelis-Menten constant (Km) in data set [19] was 45 µM. Further, the turnover number (kcat) in data set [5] is greater than 40 s⁻¹; in data set [6] it was 95 s⁻¹; in data set [7], 22 s⁻¹; in data set [8], 15 s⁻¹; in [9] it was less than 0.3 s⁻¹; in [10] it was 22 s⁻¹. The kcat in data set [11] was less than 0.01 s⁻¹; in [12], less than 0.01 s⁻¹; in data set [13] it was 38 s⁻¹; in data set [14] it was 97 s⁻¹; in data set [15], 30 s⁻¹; in data set [16], 5 s⁻¹. Further, the kcat in [17] was 85 s⁻¹; in [18], greater than 3.3 s⁻¹; in data set [19], 115 s⁻¹. Besides, the kcat/Km in data set [20] was less than 40000 M⁻¹ s⁻¹; in data set [21] it was 1e+06 M⁻¹ s⁻¹; in data set [22] it was 1.5e+06 M⁻¹ s⁻¹; in data set [23] it was 100000 M⁻¹ s⁻¹; in data set [24] it was 30000 M⁻¹ s⁻¹; in data set [25], 2e+06 M⁻¹ s⁻¹. Also, the kcat/Km was 8e+06 M⁻¹ s⁻¹ in [26]; 30000 M⁻¹ s⁻¹ in data set [27]; 1e+06 M⁻¹ s⁻¹ in [28]; 4e+06 M⁻¹ s⁻¹ in data set [29]; less than 3000 M⁻¹ s⁻¹ in [30]; 2.5e+06 M⁻¹ s⁻¹ in [31].

B3: Beta-lactamase 1 (Bacillus cereus), P00809 (protein)
chain: MILKNKRMLKIGICVGILGLSITSLEAFTGESLQVEAKEKTGQVKHKNQATHKEFSQLEKKFDARLGVYAIDTGTNQTISYRPNERFAFASTYKALAAGVLLQQNSIDSLNEVITYTKEDLVDYSPVTEKHVDTGMKLGEIAEAAVRSSDNTAGNILFNKIGGPKGYEKALRHMGDRITMSNRFETELNEAIPGDIRDTSTAKAIATNLKAFTVGNALPAEKRKILTEWMKGNATGDKLIRAGIPTDWVVGDKSGAGSYGTRNDIAVVWPPNSAPIIVLISSKDEKEAIYNDQLIAEATKVIVKGS
B3: the turnover number (kcat) in [32] was 0.2 s⁻¹. In data set [33], the Km came to 65 µM and the turnover number (kcat) was determined as 2200 s⁻¹.

In general, kcat/Km refers to the second-order rate constant that governs catalysis at low substrate concentration. For orientation: kcat means the number of substrate molecules converted per active site and unit of time at saturation. What is called Km is the concentration of substrate that gives half-maximal velocity.

Values taken from ChEMBL document CHEMBL1137660, “Molecular and biochemical characterization of the chromosome-encoded class A beta-lactamase BCL-1 from Bacillus clausii” (Antimicrob Agents Chemother, 2007).
